Measured values as given in the DeepSol protein solubility set.

Test: soluble on expression in E. coli; label from the status in PepcDB or PDB records

| Sequence | soluble on expression in E. coli |
| --- | --- |
| MSLTPEHLPTEQYEAQLAEKVVRLQSMMAPFSDLVPEVFRSPVSHYRMRAEFRIWHDGDDLYHIIFDQQTKSRIRVDSFPAASELINQLMTAMIAGVRNNPVLRHKLFQIDYLTTLSNQAVVSLLYHKKLDDEWRQEAEALRDALRAQNLNVHLIGRATKTKIELDQDYIDERLPVAGKEMIYRQVENSFTQPNAAMNIQMLEWALDVTKGSKGDLLELYCGNGNFSLALARNFDRVLATEIAKPSVAAAQYNIAANHIDNVQIIRMAAEEFTQAMNGVREFNRLQGIDLKSYQCETIFVDPPRSGLDSETEKMVQAYPRILYISCNPETLCKNLETLSQTHKVERLALFDQFPYTHHMECGVLLTAKEGHHHHHH | soluble |
| MGSDKIHHHHHHMFDVAARSGSFKQASQELGVTQSAVTRQIQTLEEQLEVRLFQRDNRVHSLTPVGLELAPQIEQIFEQLERTIERTRNLSDNTTTQLTVAISSERLRFWLAAKLADFHSLYPHIQLSFSRCNEYFINESAAEMASAIQHQSWDLAIGYGKVTDKHIQSIVLQKNQMLPVSAIKTNNSPFQLPWLINPENPDHQAMLKTYSQQLKSTRIIHCNDVQMSLDLSSAEQAVALIDSSLITPGLSNLKVYNDSAQPCQYPLSIYYRKRQRQPVALVAFIKWLQMIIS | not soluble |
| MGSDKIHHHHHHMMSQEQNDLITRVGPGTPCGKLMRAYWQPAALVDELEGERPIKPVRLLGEDLVLFKDETGRYGLIDRDCPHRGADLAFGRLENGGLRCAFHGWLFDVDGKCIDTPAEPAGSPLCKNIKQRAFPVVAKGGILWAYLGAGEPPAFPEIDCFIAPDTHVFAFKGLMECNWLQALEVGIDPAHASFLHRFFEDEDTSQAYGKQFRGASAGSDLPMTKVLREYDRPIINVEHTEYGLRLIALREIDDERTHVRVTNQLFPHGFVIPMSTEMTITQWHVPVDDTHCYWYAIFTSYAAPVDKVKMRDQRLELYELPNYKSRRNKTNDYGFDPHEQATATYTGMGLDINVHDQWAVESMGAIQDRTREHLGQSDKAIIQYRRLLRQEIEKAASGGKPLLALDEAAARAIQGPATMDGIGPSRGWETYWMEVDVKRRRGAPWAVPVPSEIAAKVPHLTAAE | not soluble |
| MTARDFLEFRERLAPASGFQSAQLREIEILLGLEDTQRISIGNGCSYRDALKLPGGAPSSSAQRVEARAADGPSFKHCLYDWLSRVPIDGSNAPADITRFLEAYLASLRAENDRRLKLASSGLAAAEIEQLRARYAAEDAGAQAFLLAEDDPQASDAERETRRAGRAAMLFIESYRELPQLAWPHALLESVLELEQAMLIWRQRHARMVERFIGRRIGTGGSSGVDYLDQTARYRIFTELWTVRSLLLRKAAVPQIRSSAGYGFVMEGFALEHHHHHH | not soluble |
| MKFEGIYTPAITPLSADGSIDTQAFAEVLEFLVESKVHGIVIGGSTGEYYAHTAEERLALAAHASEVIAGRLPLVVGTGAIRTEDSLAYAEAARAIGADAILVGSPPYALPTSREIAEHVLAVDRAAGLPIMLYNYPARMGVEMDEAFFAAVAGCRNIVAIKESSGSTAQLHRLACRHPRIALSCGWDDQALEFFAWGARSWVCAGSNFIPGEHLALYQACVVENDFAKGRRIMAAMMPLMDFLESGHFVQSIKHGCELAGLRAGGVRAPLKALDEAGKAALAEIVARLKGEVAR | not soluble |
| MIVTKDYSKESRVNENSKYGTLISDWYLKGRLTSLESQFINALDILETYHYGEKEYKDAKDKLMTRILGEDQYLLERKKVQYEEYKKLYQKYKEENPTSKLKLKTFDQYTIEDLTMREYNELTESLKSAVKDFEKDVEKIENQHHDLKPFTDEMEEKATSRVDDLANKAYSVYFAFVRDTQHKTEALELKAKVDLVLGDEDKPHRISNERIEKEMIKDLESIIEDFFIETGLNKPGNITSYDSSKHHYKNHSEGFEALVKETREAVANADESWKTKTVKKYGESETKSPVVKEENKVEDPQSPKFDNQQEVKTTAGKAEETTQPVAQPL | soluble |
| RTVTLTRERIRLEDRAVKMSVKTVGKEKVGVLDIPGFYVGLTDDVKVQLQKLEKQNVSSVIIDLRSNGGGALTEAVSLSGLFIPSGPIVQVRDNNGKVREDSDTDGQVFYKGPLVVLVDRFSASASEIFAAAMQDYGRALVVGEPTFGKGTVQQYRSLNRIYDQMLRPEWPALGSVQYTIQKFYRVNGGSTQRKGVTPDIIMPTGNEETETGEKFEDNALPWDSIDAATYVKSGDLTAFEPELLKEHNARIAKDPEFQNIMKDIARFNAMKDKRNIVSLNYAVREKENNEDDATRLARLNERFKREGKPELKKLDDLPKDYQEPDPYLDETVNIALDLAKLEKARPAEQPA | not soluble |
| MGSDKIHHHHHHVGAGHPRKELEGKAKATKQQQDLKKLLSGQKHVAFPQQVVALPFDASANLTALVYEPLLPLQYSDYKGAQLITGLRKIHEKNVVHGDISVRNIMQSKQGVAKFIDLNPMDPLSESKKSRDIRYLGKSLLEMKFAKSLEQENHRMLSYIAKHEDIYSKAQSNQAYQELKYNNAWFTYSLTQSGSIEKVPGDMDTFLELLGMEEIIKRDLEKQAGEVFSFDGKFAKFISEQPDPENTDFTAMALYMLEHGQIPNNADGILAKLLRVKQ | not soluble |
| MGSDKIHHHHHHMQVIIVEDEKTLRFSPLADLKPVYDLVTGCFSLRQRFVEALGARQKLTWHLRRHIAPWFAEANPGSVVNRVLEDEVLLVNGRLICDAAVTQFIDARKIAPGEALIQNGNLLFCRTTAEPLHVLETVFPDTIDGMVLAGAFSCVEVSGFRLIENLWDPVAMHPAMMREDGAALALGRIEGEVHPSAILVNPSAITVEKGAEVKAGAVLDASDGFIYIGAGAVVEPVALLMENVYIAPGARVKSGARIYSNVCIGGGAKAGGEIEDSIMEPFSNKQHDGFLGHSYISSWCNLGAGTDTSDLKNNYSPVSIETAHGKMATGQQFLGLLMGEHSKCSIGTRFNTGTVVGISSNIFGNGMPAKYVPSFSWGDGNPGTARYEADKAVETARKVMARRKVEMSAAYEAMFRAVAGE | not soluble |
| MSLEEETYVVFDVETTGLSAVYDTIIELAAVKVKGGEIIDKFEAFANPHRPLSATIIELTGITDDMLQDAPDVVDVIRDFREWIGDDILVAHNASFDMGFLNVAYKKLLEVEKAKNPVIDTLELGRFLYPEFKNHRLNTLCKKFDIELTQHHRAIYDTEATAYLLLKMLKDAAEKGIQYHDELNENMGQSNAYQRSRPYHATLLAVNSTGLKNLFKLVSLSHIHYFYRVPRIPRSQLEKYREGLLIGSACDRGEVFEGMMQKSPEEVEDIASFYDYLEVQPPEVYRHLLELELVRDEKALKEIIANITKLGEKLNKPVVATGNVHYLNDEGHHHHHH | not soluble |
| MAELPAKRRFTRIDRLPPYVFNITSELKMAARRRGEDIIDFSMGNPDGPTPPHIVEKMCSVAQREDTHGYSTSRGIPCLRRAISRWYADRYQVDIDPENEAIVTIGSKEGLAHLMLATLDHGDTVLVPNPSYPIHIYGAVIAGAQVRSVPLTEGIDFFGELERAIRETIPKPKMMILGFPSNPTAQCVELDFFERVVALAKQYDVLVVHDLAYADIVYDGWKAPSIMQVPGAKDIAVEFFTLSKSYNMAGWRIGFMVGNPELVSALARIKSYHDYGTFTPLQVAAIAALEGDQQCVRDIAEQYRQRRNALVRGLHEAGWMVDNPKASMYVWAKIPEPYAHLGSLEFAKRLLAEAKVCVSPGIGFGDYGDTHVRFALIENQDRIRQAVRGIKSMFRADGLLKPGKSSPNEMA | not soluble |
| MSGPNGDLGMPVEAGAEGEEDGFGEAEYAAINSMLDQINSCLDHLEEKNDHLHARLQELLESNRQTRLEFQQQLGEAPSDASP | soluble |
| MLKISNSVTLQEWEIQLTPIRAQGNGGQNVNKVATAIHLRFDIHHSSLPEFYKERLLALSDSRITKDGVVIIKAQQFRTQEKNKEDALNRLQELIKAAALQDKKRIKTKPTRASQRRRLDSKNKQGAKKQQRKKVLYLEHHHHHH | not soluble |
| MSEITTLQPSLLWKWFDQICAIPHPSHYEDTLANFIVNWAKEKHFFVERDEVGNVLIRKPATKGMENHTPVVLQAHLDMVPQANEGNPHDFTKDPIQPYIDGEWVKARGTTLGSDNGIGLASTLAVLESNDLAHPPLEVLLTMTEETGMDGAKGLRHNWLQSEILINTDTEEIGEIYIGCAGGINANFEIPVQYETNTFEHSAQITLKGLRGGHSGGDIHTGRANAIKVLARVLAKLSQNQPHFALSEIRGGSIRNAIPREAAAVLAFNGDVKTIESAVENLAVVLKEELAIAEPNFTLFVESAEKAPTVFTAQSTQTVINALNVLPNGVIRNSDVVKNVVESSLSVGVLKTEGNVVKSTILVRSLIESGKYYVTEMLSSLAILANAKVEFSAPYPGWQPVNDSTILDVTRKHYAEVLGEQPVVKVIHAGLECGLLKEHYPNIEMISVGPTIRNAHSPDEKVEIATVQTYWDLLTRVLADIPAK | soluble |
| MSTEQANGTTIEEKKDKVAEVTEKLDNLAVDTTNEANDAKQPARRGGFRGRGRGRGRGGHFYQPRPPYEDQMKKLEEDLASKKVIETGVKGHVKWFSVRGRYGFVARDKPTDENEDFFVHQTAITKSSTIKFYLRTLDDDEPVVFDIVEGLKGPEAANVTGPDGENVRGSRFARTLLTHWRTRGRGGARGRGGRGRGAPRQTRDQDGDEKDEKEKSDTIENSGDGETRGKRRTRRHGKLQPDAPSGEKGDGDAAAATTDAAPAAEKKKKRQRKGNKEPTTTTEQKEETAAPAKA | not soluble |
| MGSDKIHHHHHHMVNAAQAVMESSGQFHVEPEGVIRMSVPKAVGHFMIHPHLPEFLERYPKIDIQMLLEDRYVDLIDDGVDLALRITEQPPGGLMGRKLIDIDHLVCATPEYLSKHGTPNHPHDLKQHECIYLGEQASDSKWKFQQGNKSISVAVRGRYAANHTGVRLSAALQHLGIASLPYFVARHALQQGTLVQVLPDWYFKTYYSGGLWLLYPPTRHVQPKLSVLIQYLADKLAAEPTLFKLK | not soluble |
| MFSTKKSQGNLHKYIQRQSTDEFAVKAREHNYRARSAFKLIEINEKFKFLKPESTVIDIGCAPGSWLQVVVQKCPNGYASGVDLQNVLPIRGADILSLSDITDPAVKLKIREKLAHRQVDVVLSDMAPNPTGDNATDHLRLIELCRSVFRLFSVENEIELVKNGVYLCKIWDGSARAEFVRELSDRFSTVKTVKPTACRDNSAELYLFCRNFKK | not soluble |
| MMMEIEDDEVPSPPSPHPAGTTIGGPNSKRYSDILSLDYCTFRIPYEELNIRFRNGQKDLDRAATGVAKAAELLQKKTAGSNEPVSRESLRRHFDLLIRQVQEARKTVERITQSEIEQLDKITTRADRIHEEFEVTRDSENPRNTEKLERQKFCRFIVWHMLRCGYIEPAKVLVKEMELEDLVDVDVFENMYAVQQALLDGNIQPCLAWCDRHHRKLRKLESRIELVARQQEAVTLIELGNIPEAVAYVKKYIAPIAKGKFTEDLKKTMGAIACTLEQSRLRNPELHAADRYQKCAALFIEEAHRIFEIHGNTALATLIQYGLATQKTPSCHNDEKTPLDKQKCIVCRPDVWPIAENLPYSHVANSRIFCSLSGKLCDDDKNIPFLFPSGHVIGSAAIERLKRDDNKLYDPIHKKLIDEEEALRLYFL | not soluble |
| MGSDKIHHHHHHAHTRAIDNIANSGDMVTMSGTVKLYAKTAQDGGVVNTLTLQVSDFTGLDTGTGSKTVEISGAATYIEVEGNIDGSATKTDDVNSRQGGVTSDAVRVVGGAAIVTGGSTSTCSIEVAPEMARVEVKGDLGSSFTNLAELKVKGIYLNNVKQKRADAAVVKTTKASAPDWTTAYTAGGTKSNLYNTFIGTPITKFDSGKADGYNFFPQDFHIASLSAAATTKEEAAKYHPHVIMEVEYKMNGVGALSKTGWLNVVALKDNTSSSYIGEFANGKVYQLDLADIKKIMDVPVPPVTVDPDPDAVNVDVTVTVKGWELVFIKPEV | not soluble |
